Reference: US20230365711A1 (Hoffmann-La Roche, published 2023)
Changes are numbered by the printed parent chain. Names and notes keep the numbering of the source.

How the values were obtained:
[1] = target: T1, human carcinoembryonic antigen (CEA), membrane-bound on cells (human, UniProt P06731 35-685); assay: flow cytometry on MKN45 cells, IgG1/kappa
T1 construct: whole, on cells; also called CEACAM-5; CD66e
T1 sequence (looked up): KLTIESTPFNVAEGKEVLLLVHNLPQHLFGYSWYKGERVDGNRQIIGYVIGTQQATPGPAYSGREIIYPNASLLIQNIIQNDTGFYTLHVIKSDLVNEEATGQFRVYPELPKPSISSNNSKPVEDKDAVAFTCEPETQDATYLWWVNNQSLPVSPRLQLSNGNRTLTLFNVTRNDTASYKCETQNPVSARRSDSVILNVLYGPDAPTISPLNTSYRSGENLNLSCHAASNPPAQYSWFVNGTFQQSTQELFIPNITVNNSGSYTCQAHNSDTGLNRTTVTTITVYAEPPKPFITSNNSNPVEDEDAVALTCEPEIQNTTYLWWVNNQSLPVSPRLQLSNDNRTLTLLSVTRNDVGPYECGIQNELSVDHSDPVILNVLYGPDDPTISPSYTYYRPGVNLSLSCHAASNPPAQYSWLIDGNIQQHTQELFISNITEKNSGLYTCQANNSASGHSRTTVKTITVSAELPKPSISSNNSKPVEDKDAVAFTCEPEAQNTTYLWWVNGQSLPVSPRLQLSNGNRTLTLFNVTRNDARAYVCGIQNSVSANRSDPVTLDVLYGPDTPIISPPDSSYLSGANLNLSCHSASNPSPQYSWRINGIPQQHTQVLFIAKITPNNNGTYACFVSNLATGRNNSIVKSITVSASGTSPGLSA
Protocol: An affinity matured heavy chain variable region construct, CH7A rF9, and an affinity matured light chain variable region construct, CL1A rH11, were paired with the parent light chain variable region construct and the heavy chain variable region construct, respectively, and with each other. All antibodies were converted into human IgG1/kappa and binding to the CEA-positive cell-line MKN45 was measured by flow cytometry. […] The matured light chain shifts the EC50 values to lower numbers, whereas the matured heavy chains (rF9 in FIG. 6, and rB9 in FIG. 15) shift the total fluorescence signal intensity in a flow-cytometry measurement. […] The combination of these two chains increases the affinity even further.

[2] = target: T2, huNABA-avi-his (hybrid protein N-A1-B3-A2: N and A1 domains of human BGP, B3 domain of human CEA, A2 domain … (human, biotinylated at the avi tag (in vivo, co-transfected biotin ligase))); assay: Biacore, column Affinity, CDR-H1 and CDR-H2 rows; antigen not named on the sheet, NABA-avi-his per paragraph 230
T2 construct: also called NABA-avi-his reagent; biotinylated NABA
T2 chain: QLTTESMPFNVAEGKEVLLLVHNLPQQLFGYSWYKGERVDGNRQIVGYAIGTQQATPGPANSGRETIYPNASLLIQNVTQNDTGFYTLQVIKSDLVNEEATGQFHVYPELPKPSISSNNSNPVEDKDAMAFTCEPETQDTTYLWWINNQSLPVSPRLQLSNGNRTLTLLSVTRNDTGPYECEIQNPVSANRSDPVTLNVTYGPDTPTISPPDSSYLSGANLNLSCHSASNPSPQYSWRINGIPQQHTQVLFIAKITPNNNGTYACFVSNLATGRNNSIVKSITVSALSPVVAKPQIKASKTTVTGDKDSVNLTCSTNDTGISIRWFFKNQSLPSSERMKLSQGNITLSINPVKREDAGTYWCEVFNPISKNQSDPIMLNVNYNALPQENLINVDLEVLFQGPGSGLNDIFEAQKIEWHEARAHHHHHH

[3] = target: T2, huNABA-avi-his (hybrid protein …); assay: Biacore, column Affinity, CDR-L1 and CDR-L2 rows; antigen not named on the sheet, NABA-avi-his per paragraph 230
[4] = target: T2, huNABA-avi-his (hybrid protein …); assay: Biacore, column Affinity, CDR-H3 rows; antigen not named on the sheet, NABA-avi-his per paragraph 230
[5] = target: T2, huNABA-avi-his (hybrid protein …); assay: Biacore, Fab on immobilized NABA-avi-his; column Monovalent Affinity
[6] = target: T2, huNABA-avi-his (hybrid protein …); assay: Biacore SPR, Fab; antigen not named on the sheet, NABA-avi-his per paragraph 230
[7] = target: T2, huNABA-avi-his (hybrid protein …); assay: Proteon SPR, antibody analyte on biotinylated NABA (Neutravidin chip); column Ka (M)
Text: (§1) Shown in FIG. 22 are Proteon (Biacore) sensorgrams obtained for the binding of the CDR-H3 antibody variants to the CEA antigen-harbouring chimeric protein NABA. […] The affinity matured precursor clone 5HFF12 and the parental antibody CH7A were included for direct comparison. All antibodies tested in this assay had 2F1 as the light chain. […] The relative affinity of each, measured in the bivalent form, is as follows: 5HFF12>CH7A (Y98A/D99Y)>CH7A (Y98A)>CH7A>CH7A (E102Q)>CH7A (D99Y)>CH7A (D99H)>CH7A (A103T)>CH7A (V101F)>CH7A (W95Y).

[8] = target: T2, huNABA-avi-his (hybrid protein …); assay: Proteon SPR, antibody analyte on biotinylated NABA (Neutravidin chip)
[9] = target: T2, huNABA-avi-his (hybrid protein …); assay: as above
Text: (§2) Proteon (Biacore) sensorgrams were obtained for the binding of the combined framework and CDR-H3 variants to the CEA antigen-harbouring chimeric protein NABA. […] The precursor clone 5L1A10 and the parental antibody CH7A were included for direct comparison. All antibodies tested in this assay had 2F1 as the light chain FIG. 25.

[10] = target: T2, huNABA-avi-his (hybrid protein …); assay: Biacore on immobilized NABA-avi-his; Bivalent Affinity
[11] = target: T2, huNABA-avi-his (hybrid protein …); assay: Proteon SPR, antibody analyte on biotinylated NABA (Neutravidin chip)
Text: as §1

[12] = target: T2, huNABA-avi-his (hybrid protein …); assay: Proteon SPR, antibody analyte on biotinylated NABA (Neutravidin chip); column Ka (M)
[13] = target: T2, huNABA-avi-his (hybrid protein …); assay: as above
Text: as §2

[14] = target: T1, human carcinoembryonic antigen (CEA), …; assay: FACS on MKN45 cells

B1: antibody with affinity matured heavy chain variable region CH7A rF9 and affinity matured light chain variable region CL1A rH11 (antibody, V domains shown)
VH: QVQLVQSGSELKKPGASVKVSCKASGYTFTEYGMNWVRQAPGQGLEWMGWINTKSGEATYVEEFKGRFVFSLDTSVSTAYLQISSLKAEDTAVYYCARWDFYDYVEAMDYWGQGTTVTVSS
VL: DIQMTQSPSSLSASVGDRVTITCKASQTVSANVAWYQQKPGKAPKLLIYLASYRYRGVPSRFSGSGSGTDFTLTISSLQPEDFATYYCHQYYTYPLFTFGQGTKLEIK
notes: The suffix G2(1) is not explained; also called CH7ArF9 CL1A rH11; CH7Arf9, CL1A rH11G2(1)
- EC50 (read off the curve) [1]: ~0.5 µg/mL

B2: PR1A3 (Fab, V domains shown)
VH: B1 VH with Y32F, S55T
VL: B1 VL with T28N, S30G, A31T, L50S, R56S
notes: also called PR1A3 wt/wt; pMS22
- Kd [2]: 3680 nM
- Kd [3]: 3680 nM
- Kd [4]: 3680 nM
- Kd [5]: 3680 nM
- koff [5]: 0.0248 s⁻¹
- kon [5]: 6740 M⁻¹ s⁻¹

B3: anti-CEA Fab with unmatured heavy chain CH7A and affinity matured light chain CL1A pAC18 (Fab, V domains shown)
VH: B1 VH with Y32F, S55T
VL: DIQMTQSPSSLSASVGDRVTITCKASAAVGTYVAWYQQKPGKAPKLLIYSASYRKRGVPSRFSGSGSGTDFTLTISSLQPEDFATYYCHQYYTYPLFTFGQGTKLEIKR
notes: Fab format, bacterially expressed; also called CH7A + CL1A pAC18
- Kd [3]: 220 nM
- Kd [5]: 220 nM
- koff [5]: 0.0207 s⁻¹
- kon [5]: 95700 M⁻¹ s⁻¹
- Kd [6]: 216 nM

B4: humanized PR1A3 antibody with heavy chain variable region CH7A and light chain variable region 2F1 (antibody, V domains shown)
VH: B1 VH with Y32F, S55T
VL: B3 VL
notes: Measured in the bivalent form; also called CH7Ax2F1; parental antibody CH7A
- kon [7]: 132000 M⁻¹ s⁻¹
- Kd [8]: 1.84 nM
- Kd [9]: 1.97 nM
- Kd [10]: 0.952 nM
- koff [10]: 0.00041 s⁻¹
- kon [10]: 423000 M⁻¹ s⁻¹
- Kd [11]: 1.07 nM
- kon [12]: 122000 M⁻¹ s⁻¹
- kon [13]: 369000 M⁻¹ s⁻¹

B5: antibody with affinity matured heavy chain variable region CH7A rF9 and parent light chain variable region CL1A (antibody, human IgG1, V domains shown)
VH: B1 VH
VL: B1 VL with T28N, S30G, A31T, L50S, R56S
notes: also called CH7A rF9, CL1A
- EC50 (read off the curve) [1]: ~0.7 µg/mL

B6: antibody with heavy chain CH7A (Y98A/D99Y) and light chain 2F1 (antibody, V domains shown)
VH: B1 VH with Y32F, S55T, Y102A, D103Y
VL: B3 VL
notes: Bivalent form; also called double mutant (Y98A/D99Y)
- kon [7]: 236000 M⁻¹ s⁻¹
- Kd [9]: 0.465 nM
- Kd [11]: 0.186 nM
- kon [13]: 481000 M⁻¹ s⁻¹

B7: anti-CEA Fab with affinity matured heavy chain CH7A H4E9 and affinity matured light chain CL1A pAC18 (Fab, V domains shown)
VH: B1 VH with Y32F, S55T, V61I
VL: B3 VL
notes: Fab format, bacterially expressed; also called CH7A H4E9 and CL1A pAC18
- Kd [5]: 96 nM
- koff [5]: 0.0035 s⁻¹
- kon [5]: 36400 M⁻¹ s⁻¹
- Kd [6]: 96 nM

B8: CH1A1A (Y98A/D99Y) 2F1 (antibody, V domains shown)
VH: QVQLVQSGAEVKKPGASVKVSCKASGYTFTEFGMNWVRQAPGQGLEWMGWINTKTGEATYVEEFKGRVTFTTDTSTSTAYMELRSLRSDDTAVYYCARWDFAYYVEAMDYWGQGTTVTVSS
VL: B3 VL
notes: also called CH1A1A (98/99); CH1A1A (Y98A/D99Y)x2F1
- Kd [9]: 0.537 nM
- kon [13]: 628000 M⁻¹ s⁻¹

B9: CH1A1B (Y98A/D99Y) 2F1 (antibody, V domains shown)
VH: B8 VH with Q3K, V5Q, F70M
VL: B3 VL
- Kd [9]: 0.507 nM
- kon [13]: 711000 M⁻¹ s⁻¹

B10: anti-CEA antibody with heavy chain CH1A1D and light chain 2F1 (antibody, V domains shown)
VH: B8 VH with A16E, S17T, V20I, F70M, A102Y, Y103D
VL: B3 VL
- EC50 (read off the curve) [14]: ~1 µg/mL
- Kd [8]: 9.28 nM
- kon [12]: 53100 M⁻¹ s⁻¹

B11: anti-CEA antibody with heavy chain CH1A1F and light chain 2F1 (antibody, V domains shown)
VH: B8 VH with F70M, M81L, A102Y, Y103D
VL: B3 VL
- EC50 (read off the curve) [14]: ~1 µg/mL
- Kd [8]: 7.58 nM
- kon [12]: 70800 M⁻¹ s⁻¹

B12: anti-CEA antibody with heavy chain CH1A1C and light chain 2F1 (antibody, V domains shown)
VH: B8 VH with A9P, V11L, F70M, A102Y, Y103D
VL: B3 VL
- EC50 (read off the curve) [14]: ~1 µg/mL
- Kd [8]: 13 nM
- kon [12]: 44900 M⁻¹ s⁻¹
